In experiment [1] the target is T1, human asialoglycoprotein receptor 1 (ASGR1) extracellular domain (human, UniProt P07306 62-291).
T1 construct: The methods speak of 'human ASGR1-His'; The results paragraph says only 'ASGR1'; also called human ASGR1-His; ASGR1 ECD
T1 sequence: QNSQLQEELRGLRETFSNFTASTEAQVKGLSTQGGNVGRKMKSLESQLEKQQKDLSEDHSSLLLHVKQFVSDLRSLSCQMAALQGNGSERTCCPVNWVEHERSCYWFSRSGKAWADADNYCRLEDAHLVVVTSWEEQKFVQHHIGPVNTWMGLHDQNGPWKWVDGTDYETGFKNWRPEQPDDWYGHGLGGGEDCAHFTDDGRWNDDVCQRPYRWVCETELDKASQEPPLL
The experiment can be described thus: apparent KD from biochemical characterisation; method not named for this value (Example 1 describes Octet BLI: IgG on AHC sensors, 100 nM ASGR1, 1:1 model). A general note: Biolayer interferometry detects binding as a change in optical thickness at a sensor tip.

The target of experiment [2] is T1, human asialoglycoprotein receptor 1 …. The experiment can be described thus: apparent KD from biochemical characterisation; method not named for this value (Example 1 describes Octet BLI: IgG on AHC sensors, 100 nM ASGR1, 1:1 model); mAb-60819.
For experiment [3] the target is unchanged. The experiment can be described thus: apparent KD from biochemical characterisation; method not named for this value (Example 1 describes Octet BLI: IgG on AHC sensors, 100 nM ASGR1, 1:1 model); mAb-60856.
The target is the same in experiment [4]. The experiment can be described thus: apparent KD from biochemical characterisation; method not named for this value (Example 1 describes Octet BLI: IgG on AHC sensors, 100 nM ASGR1, 1:1 model); mAb-60869.

Changes are numbered by the printed parent chain.

B1: mAb-60881 (antibody, V domains shown)
VH: QVQLQESGPGLVKPSETLSLTCAVSGYSISSGYYWGWIRQPPGKGLEWIGSIYHSGSTYYNPSLKSRVTISVDTSKNQFSLKLSSVTAADTAVYYCAREAGYPERGYGMDVWGQGTTVTVSS
VL: EIVMTQSPATLSVSPGERATLSCRASQSVSSNLAWYQQKPGQAPRLLIYGASTRATGIPARFSGSGSGTEFTLTISSLQSEDFAVYYCQQYFHHPFTFGGGTKVEIK
notes: Made as IgG
With B1, the Kd in experiment [1] is about 3 nM.

B2: mAb-60819 (antibody, V domains shown)
VH: QVQLVQSGAEVKKPGSSVKVSCKASGGTFSNYAISWVRQAPGQGLEWMGGIIPIFGTANYAQKFQGRVTITADESTSTAYMELSSLRSEDTAVYYCAREARVAGTRPRGFDIWGQGTMVTVSS
VL: EIVLTQSPATLSLSPGERATLSCRASQSVSSYLAWYQQKPGQAPRLLIYDASNRATGIPARFSGSGSGTDFTLTISSLEPEDFAVYYCQQLNNFPPTFGGGTKVEIK
B2: the Kd in experiment [2] is 9.29 nM.

B3: mAb-60856 (antibody, V domains shown)
VH: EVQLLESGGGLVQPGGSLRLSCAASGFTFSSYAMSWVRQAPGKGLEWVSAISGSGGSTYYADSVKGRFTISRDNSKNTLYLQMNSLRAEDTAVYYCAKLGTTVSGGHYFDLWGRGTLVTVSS
VL: B2 VL with N53K, L91D, N92S, F94H, P96L
notes: also called anti-ASGR1 antibody mAb-60856
Take B3: in experiment [3], the Kd is 9.29 nM.

B4: mAb-60869 (antibody, V domains shown)
VH: EVQLLESGGGLVQPGGSLRLSCAASGFTFSNYAMSWVRQAPGKGLEWVSAISGSGGSTYHADSVKGRFTISRDNSKNTLYLQMNSLRAEDTAVYYCARDAPYRGGHYFDLWGRGTLVTVSS
VL: B2 VL with N92A, N93S, F94W
notes: also called anti-ASGR1 antibody mAb-60869
As for B4, the Kd in experiment [4] stood at 3.22 nM.

The record behind these values is patent US20250381255A1 (ANOKION, published 2025).
